Measurements as given in doi:10.1101/2022.07.16.500195 (bioRxiv, 2022).
Read-outs that look alike come from different tables or passages of the source.

B1: PulLCTD (C-terminal domain of PulL, residues 312-398) (domain or fragment, Klebsiella oxytoca)
chain: SNAGARPALISRLGALQQIIDDTPGIRLRTLSFDAARNALQLEISAVSSQALEQFSQRARARFRVQTGEMKPRADGIEGRLTLEGNDA
B2: PulMCTD (C-terminal domain of PulM, residues 79-161) (domain or fragment, Klebsiella oxytoca)
chain: SPEEPSTVIMREAARHGLTIVRLQPQGSRLSLTVQPADFQALMAWLDALGQAGMTTATLAVTAVAQQPGWVTVNTLVLERSDEK

Legend:
[1] = target: the molecule itself; test: AUC + other: NMR
[2] = target: B2; test: NMR titration
[3] = target: the molecule itself
[4] = target: B1; test: native MS

Row | Binder | stoichiometry N [1] | stoichiometry N [2] | stoichiometry N [3] | binding result [4]
1 | B1 | 2 | 1 PulLCTD per PulMCTD | – | –
2 | B2 | – | – | 2 | binds
